Consider 20 sequences from the DeepSol protein solubility set.

The nature of the data set: soluble on expression in E. coli; label from the status in PepcDB or PDB records.
For “SLNAEEKKGLQRAIEEITEIAKGFGLDFYPMRYEICPAEIIYTFGAYGMPTRFSHWSFGKQFHKMKLHYDLGLSKIYELVINSDPCYAFLLDSNSLIQNKLIVAHVLAHCDFFKNNCRFQNTKRDMVESMAATAERIKHYEQVHGIKEVESFLDAILSIQEHIDPSLVRPKLQWSVDDEEEEIEEAATPYDDLWSLDEKKPKKQVKKSKKPFPPRPEKDILLFIEEHSRELEPWQRDILTMMREEMLYFWPQLETKIMNEGWASYWHQRIIRELDLTSDEAIEFAKLNAGVVQPSKTGINPYYLGLKIFEDIEKRYNNPTEEMKKMGVQPDSGREKMFEVREIESDISFIRNYLTKELVMREDLYLFAAAGRDYKIIDKQWKSVRDQLVSMRVNGGFPYLTVNDGDYMKNNELYIKHWYEGIELDLKYLEKVLPYLFQLWGRSVHIESVLEDKEVMFSYDGKGVHRRYL”, the “soluble on expression in E. coli” value was “soluble”.

With “MAKHHPLTDWLPTSKKEMEAKGWDEADVILFSGDAYVDHPSFGAAVVGRILEAEGLRVAIVPQPNWRDDLRDFRKLGRPRLFFGVSAGAMDSMVNKYTANRRLRSEDAYTPDRRSDMRPDYPTIVYTRILKELFPDVPVIVGGIEASLRRLTHYDYWQDKLLPGILYQSGADLLIYGMGELPLHEIAQRLIAGEPFDSLKSIRQIAYLVPKGKTPVPCENDRHLFSHEECLSDKRKQAQNFREIEIQSNRYEADRILQAVGDSTIVVNPPFPPMSTAQIDQSFDLPYTRLPHPRYKGKIISAYEMIKHSVNVHRGCFGGCAFCTISAHQGKFIASRSEASVLREVKEITEMEDFKGYLSDVGGPSANMYKMQGYDLSICKRCKKPSCIHPNVCPNLNADHRPLLDLLRRIDKNPKIKKSFIGSGVRMDLLLHNYKDKVLKKAADEYTEDLIVKHVSGRLKVAPEHSSDRVLNLMRKPPFRQFAEFTKRFQRINEAHGLRQQLIPYFISSHPGCTEEDMAELAILTKKLDFKLEQIQDFTPTPMTLATEMYYTGYHPYTLQPVYTAIKKEEKMRQHMFFFWYKREEADKIRRELHRIGRPDLIAKLFDRTTSSRNDRHTPPSTQPRKSKSKSRHS”, the “soluble on expression in E. coli” value is “not soluble”.

For “MSEIDLTSEYSCSKHSKNPETAGEEFDVKVEKIYEDLKNSSIERQEDIPYFPNGEMTRIDIWGPETAEKVFIMIHGGYWLIGNRKKCLAVVHVAQKLGYTVVSVGYDYANKDHVLSKTIVEALEGVQFALKKFKNAKKIVIGGHSVGAHLAFQAVTRIHDPRISGAYLSAGIYKIQELTSTTYGHDLGLTSEEAETCSCDYELMKHVRFPVLIACCRRESPKLYQQNQDFSSQVANAQYKV”, the “soluble on expression in E. coli” value was “not soluble”. For “MHVTLVEINVHEDKVDEFIEVFRQNHLGSVQEEGNLRFDVLQDPEVNSRFYIYEAYKDEDTVAFHKTTPHYKTCVAKLESLMTGPRKKRLFNGLMP” the value was “not soluble”; for “MAKSEEIIRERYKVMAPRIIKALNQRNFEAYFCETSEKAVECALSLIPQGASVAWGGSMTLEEIGLIQRLKEGNYQVIDRDTAKSQEERFSLMRQALLSDVYLASVNAMSEDGIMVNIDGRGNRISAIAFGPKTVILVVGMNKICRDLESARKRAHTYAAPNNALRLGLELPCTKTGCCFDCNKNNPSSICAQIVEMHSSIVPGRIKVILVGENLGL”, “soluble”. For “MKIGYLGPKATFTEAAAALLFPSQPREPYDTIPDCIDAAAAGEIEAAVVPLENALEGSVNLTLDYLIHEQPLPIIGEIVVPIEQHLMVHPYFTPHWREVKEVYSHSHAIAQCRKFLHTVLKGAKQVPMTSTSAAAKFVSEHPHLPAAAIANRLAAEKYGLVIVQENVHDYDYNHTRFIVVSRRKEPLSPASPLYAGDKTTVVVMLPQDRPGALHQVLSAFAWRRLNLTKIESRPAKTGLGNYFFIIDIDAPMDDVLIPGAIAEIEALGCTVQLLGSYPYYFA” the value was “not soluble”. Consider “MSFNPDYESVAKAFIQHYYSKFDVGDGMSRAQGLSDLYDPENSYMTFEGQQAKGRDGILQKFTTLGFTKIQRAITVIDSQPLYDGSIQVMVLGQLKTDEDPINPFSQVFILRPNNQGSYFIGNEIFRLDLHNN”, for which the “soluble on expression in E. coli” value is reported as “not soluble”. Under “MKTLIARHKAGEHIGICSVCSAHPLVIEAALAFDRNSTRKVLIEATSNQVNQFGGYTGMTPADFREFVFTIADKVGFARERIILGGDHLGPNCWQQENADAAMEKSVELVKAYVRAGFSKIHLDASMSCAGDTIPLAPETVAERAAVLCFAAESVATDCQREQLSYVIGTEVPVPGGEASAIQSVHITHVEDAANTLRTHQKAFIARGLTEALTRVIAIVVQPGVEFDHSNIIHYQPQEAQALAQWIENTRMVYEAHSTDYQTRTAYWELVRDHFAILKVGPALTFALREAIFALAQIEQELIAPENRSGCLAVIEEVMLDEPQYWKKYYRTGFNDSLLDIRYSLSDRIRYYWPHSRIKNSVETMMVNLQGVDIPLGMISQYLPKQFERIQSGELSAMPHQLIMNKIYDVLRAYRYGCAE” stands “not soluble”. Under “MKIIDFRLRPPAMGFLNARIYTRPDIRNRFTRQLGFEPAPSAEEKSLELMFEEMAAAGIEQGVCVGRNSSVLGSVSNADVAAVAKAYPDKFHPVGSIEAATRKEAMAQMQEILDLGIRIVNLEPGVWATPMHVDDRRLYPLYAFCEDNGIPVIMMTGGNAGPDITYTNPEHIDRVLGDFPDLTVVSSHGNWPWVQEIIHVAFRRPNLYLSPDMYLYNLPGHADFIQAANSFLADRMLFGTAYPMCPLKEYTEWFLTLPIKPDAMEKILHGNAERLLAQAGRLEHHHHHH” stands “not soluble”.

Take “MGHHHHHHSHGSSAEIAATLGLPVVLVVDVRGMSQSVGAVVRGFATADPHVRIAGVILNKVGTDRHAEVCREAVEAVGVRVLGAIP”: the “soluble on expression in E. coli” value was “not soluble”. For “MGSDKIHHHHHHMTKLMPKFEQHRTDFAYCQTITKRSSSAFYTAFSQLPLERAWSIYAVYAFCRTADDLVDVDHDIDGLMALRQSLTTFANGHVPDHPMWRALAVVFETYDMNLDVFFDMLTGQEQDATFKQPQTQQALEDYCYYVAGSVGLMILPMLATNPQSLVKPAVELGSAMQLTNILRDVGEDYQRGRIYLPSKLLAHYQLNPTDLHGPIPSANFIRLWEHEAQIAMNKYEAALTMMPQIDPVARPSLLAATLLYRELLLIAREQHYPILSQRVFLTDERKTQVLNQVSTKVHELALKEA” the value was “not soluble”. Under “MNVYFLGGGNMAAAVAGGLVKQGGYRIYIANRGAEKRERLEKELGVETSATLPELHSDDVLILAVKPQDMEAACKNIRTNGALVLSVAAGLSVGTLSRYLGGTRRIVRVMPNTPGKIGLGVSGMYAEAEVSETDRRIADRIMKSVGLTVWLDDEEKMHGITGISGSGPAYVFYLLDALQNAAIRQGFDMAEARALSLATFKGAVALAEQTGEDFEKLQKNVTSKGGTTHEAVEAFRRHRVAEAISEGVCACVRRSQEMERQYQ” stands “soluble”; under “MSLTSNIFSGCMPALMTPCKADRSPDFDALVKKGKELIEAGMSAVVYCGSMGDWPLLTDEQRMEGVERLVKAGVPVVVGTGAVNTRVAVAHAAHAAKVGARGLMVIPRVLSRGSSVSAQRNHFSDILKAAPSLPAVIYNSPYYGFATRADLFFDLRREFPNLIGFKEFGGLADLRYAAENITSQDDQVTLMVGVDTAVYHGFVNCGATGAITGIGNALPKEVLHLVALCQKAAEGHAEARLRARELEEALAVLSSFDEGSDLVLYYKHLMVLNGEDEYRLHFNETDALSDAQRNYAEAQYELFRTWYADWSTKGEGHHHHHH”, “soluble”; under “MGSDKIHHHHHHMQLPNLQSATLLRRYKRFLADVELNNGEILTLHCANTGAMTGCGEKGDTVWFSTSDSKTRKYPHSWELTQLKNGQTVCINTHRSNQLTLEALQNKIITELAEYDEILPEVKYGVENSRIDFLLKGKNLPDCYVEVKSVTFVKNHLGLFPDAVTTRGQKHLRELIAMKKRGHRAVVFFAGLHDGFNRFTVAKSIDPDYAELLQQAVKEGVEVYSYAVKFDFSHQKPTALYLTNLVNYLE”, “not soluble”.

Consider “MAHHHHHHMEEGGRYAACKAELYKLQEKIKTQETPRDNCAEKEKMWEKQRSELEQEKDECLRTSDAHRTQKQDLEDRVRYMDGLTRAMISEKRFAEERRNISEKENEDLKTRVRVLTHKLGVLTAMVQKLHISHMIKDMGIAMLQAEAKQAAEEMETNHKKDVAAAEERVLQECKEKFCFDSSGNLNAAVFIEHNISKENRSFLLEQLNCSKENQGDTKREWRFWRKGANDSSRPKKSADHSESNGSSHGNNIHLVLRVCLSLLLLTALS”, for which the “soluble on expression in E. coli” value is listed as “not soluble”.

For the sequence “MSLKYYIGLACTGHENALAIVNPDGEIVFAEATERFLQNKRAVNTPPDDPLRIPRLLKQYCSDCDAIVVAKTWSREAPQKMRTDAAHILKALAGTDARTDRDWVARVAFHAGLGDKLIEPNYRLAGNGIERYCSLQGLEHSVRSYEHHLTHAAYACHTSPFDDAVCAVFDGYGEGVHSSYFHYRNGKVEPIRRARSAKGQYGSLASLGLYYGYTICALLGLDIVNGEEWKVMGLAPYGQLNPAFLDVLRRHIYVDGLDLVMDGNAAGTYRELQAFARRPGQSYESVADIAYTAQHYFSELMLEMLAGLRQLGLSDRLVLTGGCALNSTFNGEVIPRSGFAQLYVPPAPSDDGNAVGAALLAYAEDGGAMSRPAFHSPYLGSAIDDRELAPFLKNGAMLGQVPVTPGELCDYVAQELADGKVIGWIQGSAEFGPRSLGNRSILADPRRASMKERINAIVKFREGFRPFAPSILDEFGDRYFEDYSATPYMEKTLKIREAYREAIPAVCHVDHTGRLQTVRRDWNPRFHALLSAFHARTGTPVLLNTSLNVMGKPIVHSAADAFTVFLSTGLDLLVINDHVFSKREGHHHHHH”, the “soluble on expression in E. coli” value was “soluble”. For “MGSDKIHHHHHHMHTQVNELFSELWQNYVSVTPSAAKIHALLGSSQQDDVQNDHIALRTFNIEKINLDKLAAHFLALGYKENGEYHFEAKKLYAKHYEHPDPTQPKVFISELLLEKCSPELQAIVHKLVDQIDVAAVTADNFLYSGRHWSIDQATYNTLVKESEYAAWVSVWGFRANHFTVSVNALKNFETLVSVNDTLKAAGFALNTSGGEIKGSQEVMLKQSSTLADEALVEFTDGSKMVPSCFYEFARRFPMADGTLYPGFVAASADKIFESTNAR” the value was “not soluble”. For “MALVQALVPREREPKLSILQMDRGDPQHSSHWCPEREKVKLLTLKPRETSKNILINFYRAFNLDKDVFIHQANHPLTVPSSVVMGDNGHTLAEDDKRPCFRVLPCYLERVSSGISISWISAPLPVGAMKHQLLCDLMDLITLSFWLAGQCMSLKATNMQHCKCSIATSDWAIELDRTDYKTLPSEYSILALLQVFAGKNCMDRVLLHVDVNYLKSLP” the value was “soluble”. For “KANFQWETGFTFSVNKNTIKKLYGEYETIVDALGNTIVKERDDVTNGWFIGHPVSAIWDYKVTGIWQKDEVKEAAKYSQRPGDPKVQNIYTDDDKVNADGSVTPVYNNKDKQFMGETTPPIHWSLRNSFTIFKDWVFSFNMYSYMGHKSLDTNYLNNDNNYSQITNCRNVYTKEYWTVDNPSNTYARLSAQGPTGISAPARVIDRSFIRLENISLAYNIPMKFLEKYKIQNAKIFTTVRNVATWSKEWEYGDPETGGLAPRTYSLGINLTF” the value was “not soluble”; for “SDRSAEFRKWKAQCLSKADLSRKGSVDEDVVELVQFLNMRDQFFTTSSCAGRILLLDRGINGFEVQKQNCCWLLVTHKLCVKDDVIVALKKANGDATLKFEPFVLHVQCRQLQDAQILHSMAIDSGFRNSGITVGKRGKTMLVVRSTHGLEVPLSHKGKLMVTEEYIDFLLNVANQKMEENKKRIERFYNCLQHALERETMTNLHPKIKEKNNSSYIHKKKRNPEKTRAQCITKESDEELENDDDDDLGINVTIFPEDY”, “soluble”.
